Measurements: paper PMC11535393, “Combining systems and synthetic biology for in vivo enzymology” (The EMBO Journal, 2024)

Legend:
[1] = target: T1, PaCrtI (Pantoea ananatis, UniProt P21685); experiment: in vivo lycopene flux vs intracellular phytoene in yeast strains, Michaelis-Menten fit; format: cell-based; settings: read-out: K1/2cell; in living S. cerevisiae, exponential growth, 28 °C, medium pH 5.0; TDH3p expression; total intracellular substrate concentration; lower limit only, no saturation
T1 construct: gene crtI; full-length, yeast codon-optimized synthetic gene, expressed in Saccharomyces cerevisiae under TDH3p; V5 tag (CrtI-V5 in western blot)

[2] = system: CC(C)=CCC/C(C)=C/CC/C(C)=C/CC/C(C)=C/COP(=O)(O)OP(=O)(O)O; experiment: cells, lysate or membranes; settings: in living S. cerevisiae, exponential growth, 28 °C, medium pH 5.0, PGI1p expression, total intracellular substrate concentration, partial saturation
[3] = substrate: CC(C)=CCC/C(C)=C/CC/C(C)=C/CC/C(C)=C/C=C\C=C(/C)CC/C=C(\C)CC/C=C(\C)CCC=C(C)C; experiment: in vivo lycopene flux vs intracellular phytoene in yeast strains, Michaelis-Menten fit; format: cell-based, Phaffia rhodozyma; settings: in living S. cerevisiae, exponential growth, 28 °C, medium pH 5.0, PGK1p expression, total intracellular substrate concentration
[4] = substrate: CC(C)=CCC/C(C)=C/CC/C(C)=C/CC/C(C)=C/C=C\C=C(/C)CC/C=C(\C)CC/C=C(\C)CCC=C(C)C; experiment: as above; format: cell-based, Blakeslea trispora; settings: in living S. cerevisiae, exponential growth, 28 °C, medium pH 5.0, PGI1p expression, total intracellular substrate concentration, enzyme level slightly higher in low-phytoene strains

T1 sequence (P21685 whole entry): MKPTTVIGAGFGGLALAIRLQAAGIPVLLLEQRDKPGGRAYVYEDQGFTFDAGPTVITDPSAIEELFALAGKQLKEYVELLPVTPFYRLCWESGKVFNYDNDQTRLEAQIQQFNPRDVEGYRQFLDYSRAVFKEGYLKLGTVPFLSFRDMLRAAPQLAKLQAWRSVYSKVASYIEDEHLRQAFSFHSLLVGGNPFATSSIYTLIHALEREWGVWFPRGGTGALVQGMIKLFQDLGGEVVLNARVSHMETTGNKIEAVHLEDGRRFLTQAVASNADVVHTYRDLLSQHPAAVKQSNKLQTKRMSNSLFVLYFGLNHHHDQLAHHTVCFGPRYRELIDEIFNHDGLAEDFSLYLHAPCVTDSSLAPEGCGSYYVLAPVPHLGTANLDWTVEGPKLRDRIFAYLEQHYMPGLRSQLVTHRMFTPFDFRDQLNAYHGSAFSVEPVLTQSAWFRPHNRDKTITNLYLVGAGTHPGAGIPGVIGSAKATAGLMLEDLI

Molecule: CC(C)=CCC/C(C)=C/CC/C(C)=C/CC/C(C)=C/C=C\C=C(/C)CC/C=C(\C)CC/C=C(\C)CCC=C(C)C [phytoene]
- Km [1]: > 560 µM

Molecule: PaCrtB (Pantoea ananatis)
- K0.5 [2]: 19 ± 3 µM
- kcat [2]: 6 ± 1 s⁻¹

B1: XdCrtI (Phaffia rhodozyma) (protein)
chain: MGKEKDQDKPTAIIVGCGIGGIATAARLAKEGFQVTVFEKNDYSGGRCSLIERDGYRFDQGPSLLLLPDLFKQTFEDLGEKMEDWVDLIKCEPNYVCHFHDEETFTLSTDMALLKREVERFEGKDGFDRFLSFIQEAHRHYELAVVHVLQKNFPGFAAFLRLQFIGQILALHPFESIWTRVCRYFKTDRLRRVFSFAVMYMGQSPYSAPGTYSLLQYTELTEGIWYPRGGFWQVPNTLLQIVKRNNPSAKFNFNAPVSQVLLSPAKDRATGVRLESGEEHHADVVIVNADLVYASEHLIPDDARNKIGQLGEVKRSWWADLVGGKKLKGSCSSLSFYWSMDRIVDGLGGHNIFLAEDFKGSFDTIFEELGLPADPSFYVNVPSRIDPSAAPEGKDAIVILVPCGHIDASNPQDYNKLVARARKFVIQTLSAKLGLPDFEKMIVAEKVHDAPSWEKEFNLKDGSILGLAHNFMQVLGFRPSTRHPKYDKLFFVGASTHPGTGVPIVLAGAKLTANQVLESFDRSPAPDPNMSLSVPYGKPLKSNGTGIDSQVQLKFMDLERWVYLLVLLIGAVIARSVGVLAF
notes: full-length, gene amplified from a plasmid, expressed in Saccharomyces cerevisiae under PGK1p; V5 tag (CrtI-V5 in western blot)
- K0.5 [3]: 380 ± 49 µM
- kcat [3]: 0.030 ± 0.006 s⁻¹

B2: BtCrtI (Blakeslea trispora) (protein)
chain: MSDQKKHIVVIGAGIGGTATAARLAREGFRVTVVEKNDFSGGRCSFIHHDGHRFDQGPSLYLMPKLFEDAFADLDERIGDHLDLLRCDNNYKVHFDDGDAVQLSSDLTKMKGELDRIEGPLGFGRFLDFMKETHVHYEQGTFIAIKRNFETIWDLIRLQYVPEIFRLHLFGKIYDRASKYFQTKKMRMAFTFQTMYMGMSPYDAPAVYSLLQYTEFAEGIWYPRGGFNMVVQKLESIASKKYGAEFRYQSPVAKINTVDKDKRVTGVTLESGEVIEADAVVCNADLVYAYHHLLPPCNWTKKTLASKKLTSSSISFYWSMSTKVPQLDVHNIFLAEAYKESFDEIFNDFGLPSEASFYVNVPSRIDESAAPPNKDSIIVLVPIGHMKSKTGNSAEENYPELVNRARKMVLEVIERRLGVNNFANLIEHEEVNDPSVWQSKFNLWRGSILGLSHDVFQVLWFRPSTKDSTNRYDNLFFVGASTHPGTGVPIVLAGSKLTSDQVCKSFGQNPLPRKLQDSQKKYAPEQTSKTESHWIYYCLACYFVTFLFFYFFPRDDTTTPASFINQLLPNVFQVQNSNDIRI
notes: full-length, yeast codon-optimized synthetic gene, expressed in Saccharomyces cerevisiae under PGI1p; V5 tag (CrtI-V5 in western blot)
- K0.5 [4]: 41 ± 12 µM
